According to the supplement of paper PMC10724198:
± gives the standard deviation of the averaged measurements.

Experiments:
[1] = test system: Saccharomyces cerevisiae; assay: protein stability index of tFT-peptide fusion (C-terminal peptide) (PSI (0-1 scale)); higher = more stable (slower turnover); conditions: genetic background: wild type; temperature: 30 C
[2] = test system: Saccharomyces cerevisiae; assay: as above
Method: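 MPS profiling in S. cerevisiae of the tFT-X12 degron library: putative degron peptides plus stable controls, 12 aa, fused to the C-terminus of a sfGFP-mCherry timer. Cells are FACS-sorted into 8 mCherry/sfGFP bins and deep-sequenced. PSI runs from 0 (unstable) to 1 (stable). Backgrounds are wild type, das1Δ and doa10Δ at 30 °C, and wild type, das1Δ, cdc34-1 and cdc53-1 at 37 °C; 2-3 technical replicates each.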

[3] = genetic background: cdc34-1, temperature: 37 C
[4] = genetic background: cdc53-1, temperature: 37 C
[5] = genetic background: das1 deletion, temperature: 30 C
[6] = genetic background: das1 deletion, temperature: 37 C
[7] = genetic background: doa10 deletion, temperature: 30 C
[8] = genetic background: wild type, temperature: 30 C
[9] = genetic background: wild type, temperature: 37 C
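Also: PSI is a weighted mean of sequencing reads over stability bins, variants kept only with over 10 reads, mCherry proximal and sfGFP distal, peptide attached via GGGS linker.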

## ASPLRLFIPFLF
[1]
  protein stability index: 0.312 ± 0.058
[2]; [3]
  protein stability index: 0.678 ± 0.071
[2]; [4]
  protein stability index: 0.76 ± 0.017
[2]; [5]
  protein stability index: 0.632 ± 0.034
[2]; [6]
  protein stability index: 0.755 ± 0.036
[2]; [7]
  protein stability index: 0.192 ± 0.0066
[2]; [8]
  protein stability index: 0.211 ± 0.026
[2]; [9]
  protein stability index: 0.413 ± 0.0079

## AWLWCVCWSIMR
[1]
  protein stability index: 0.395 ± 0.025
[2]; [3]
  protein stability index: 0.389 ± 0.017
[2]; [4]
  protein stability index: 0.414 ± 0.013
[2]; [5]
  protein stability index: 0.317 ± 0.034
[2]; [6]
  protein stability index: 0.502 ± 0.024
[2]; [7]
  protein stability index: 0.373 ± 0.028
[2]; [8]
  protein stability index: 0.323 ± 0.021
[2]; [9]
  protein stability index: 0.453 ± 0.0073

## AYFPSQRVHHLM
[1]
  protein stability index: 0.333 ± 0.017
[2]; [3]
  protein stability index: 0.637 ± 0.046
[2]; [4]
  protein stability index: 0.706 ± 0.066
[2]; [5]
  protein stability index: 0.661 ± 0.016
[2]; [6]
  protein stability index: 0.765 ± 0.013
[2]; [7]
  protein stability index: 0.144 ± 0.0018
[2]; [8]
  protein stability index: 0.174 ± 0.033
[2]; [9]
  protein stability index: 0.374 ± 0.03

## CACAVPFLLLFF
[1]
  protein stability index: 0.411 ± 0.025
[2]; [3]
  protein stability index: 0.474 ± 0.0077
[2]; [4]
  protein stability index: 0.519 ± 0.017
[2]; [5]
  protein stability index: 0.374 ± 0.022
[2]; [6]
  protein stability index: 0.505 ± 0.0063
[2]; [7]
  protein stability index: 0.497 ± 0.028
[2]; [8]
  protein stability index: 0.347 ± 0.032
[2]; [9]
  protein stability index: 0.494 ± 0.023

## CCSRYLSNLCPI
[1]
  protein stability index: 0.0813 ± 0.051
[2]; [3]
  protein stability index: 0.674 ± 0.052
[2]; [4]
  protein stability index: 0.751 ± 0.036
[2]; [5]
  protein stability index: 0.631 ± 0.016
[2]; [6]
  protein stability index: 0.7263 ± 0.0048
[2]; [7]
  protein stability index: 0.657 ± 0.033
[2]; [8]
  protein stability index: 0.648 ± 0.0072
[2]; [9]
  protein stability index: 0.726 ± 0.017

## CDSRIRKIWSYL
[1]
  protein stability index: 0.36 ± 0.0036
[2]; [3]
  protein stability index: 0.836 ± 0.069
[2]; [4]
  protein stability index: 0.883 ± 0.019
[2]; [5]
  protein stability index: 0.774 ± 0.021
[2]; [6]
  protein stability index: 0.834 ± 0.026
[2]; [7]
  protein stability index: 0.2666 ± 0.0024
[2]; [8]
  protein stability index: 0.284 ± 0.039
[2]; [9]
  protein stability index: 0.494 ± 0.0054

## CFFPLFLCTAFC
[1]
  protein stability index: 0.425 ± 0.017
[2]; [3]
  protein stability index: 0.465 ± 0.027
[2]; [4]
  protein stability index: 0.4713 ± 0.0024
[2]; [5]
  protein stability index: 0.394 ± 0.023
[2]; [6]
  protein stability index: 0.513 ± 0.011
[2]; [7]
  protein stability index: 0.387 ± 0.0062
[2]; [8]
  protein stability index: 0.39 ± 0.0053
[2]; [9]
  protein stability index: 0.492 ± 0.022

## CFSVFSVLCFFV
[1]
  protein stability index: 0.437 ± 0.029
[2]; [3]
  protein stability index: 0.575 ± 0.02
[2]; [4]
  protein stability index: 0.6301 ± 0.0018
[2]; [5]
  protein stability index: 0.532 ± 0.03
[2]; [6]
  protein stability index: 0.627 ± 0.015
[2]; [7]
  protein stability index: 0.415 ± 0.035
[2]; [8]
  protein stability index: 0.414 ± 0.019
[2]; [9]
  protein stability index: 0.513 ± 0.0066

## CFVFYALFGFAV
[1]
  protein stability index: 0.401 ± 0.013
[2]; [3]
  protein stability index: 0.37 ± 0.037
[2]; [4]
  protein stability index: 0.463 ± 0.027
[2]; [5]
  protein stability index: 0.302 ± 0.036
[2]; [6]
  protein stability index: 0.484 ± 0.0052
[2]; [7]
  protein stability index: 0.252 ± 0.0068
[2]; [8]
  protein stability index: 0.285 ± 0.017
[2]; [9]
  protein stability index: 0.431 ± 0.046

## CLISILLFLCFT
[1]
  protein stability index: 0.4162 ± 0.0015
[2]; [3]
  protein stability index: 0.439 ± 0.029
[2]; [4]
  protein stability index: 0.509 ± 0.074
[2]; [5]
  protein stability index: 0.392 ± 0.014
[2]; [6]
  protein stability index: 0.459 ± 0.037
[2]; [7]
  protein stability index: 0.376 ± 0.021
[2]; [8]
  protein stability index: 0.39 ± 0.021
[2]; [9]
  protein stability index: 0.446 ± 0.0076

## CLLVCCCFYRNV
[1]
  protein stability index: 0.469 ± 0.0069
[2]; [3]
  protein stability index: 0.501 ± 0.043
[2]; [4]
  protein stability index: 0.558 ± 0.0066
[2]; [5]
  protein stability index: 0.409 ± 0.032
[2]; [6]
  protein stability index: 0.586 ± 0.0086
[2]; [7]
  protein stability index: 0.371 ± 0.015
[2]; [8]
  protein stability index: 0.399 ± 0.025
[2]; [9]
  protein stability index: 0.523 ± 0.0091

## CLVKIVIFFLFS
[1]
  protein stability index: 0.349 ± 0.035
[2]; [3]
  protein stability index: 0.22 ± 0.011
[2]; [4]
  protein stability index: 0.326 ± 0.016
[2]; [5]
  protein stability index: 0.217 ± 0.037
[2]; [6]
  protein stability index: 0.371 ± 0.0075
[2]; [7]
  protein stability index: 0.191 ± 0.012
[2]; [8]
  protein stability index: 0.211 ± 0.024
[2]; [9]
  protein stability index: 0.34 ± 0.019

## DNTYRIDIKNKQ
[2]; [3]
  protein stability index: 0.764 ± 0.093
[2]; [4]
  protein stability index: 0.771 ± 0.04
[2]; [5]
  protein stability index: 0.641 ± 0.019
[2]; [6]
  protein stability index: 0.689 ± 0.0069
[2]; [7]
  protein stability index: 0.4753 ± 0.0045
[2]; [8]
  protein stability index: 0.466 ± 0.013
[2]; [9]
  protein stability index: 0.6553 ± 0.00098
